Assay results: patent publication US8906865B2, “Treatment of inflammation and/or endotoxic shock” (ISIS Innovation Limited, priority 2007, dated 2014)

Tested on: Murine peritoneal macrophages (PMΦ)
Test: Macrophage cytokine mRNA levels by qRT-PCR (IL-10, TGFβ), normalized to HPRT
Assay type: cell-based, mouse
Settings: chemerin
Experimental: FIGS. 1A-F—FIGS. 1A and 1B illustrate that Chemerin140 suppresses production of inflammatory mediators by macrophages in a proteolysis dependent fashion. Supernatants from macrophages or activated macrophages (treated with 100 ng/ml LPS and 20 ng/ml interferon gamma were assayed for cytokine expression using Luminex and ELISA assays. Cells were incubated in the presence or absence of recombinant murine chemerin or dexamethasone at the indicated doses and in the absence or presence of the protease inhibitor leupeptin ([…]). FIG. 1C—Macrophage cytokine mRNA levels were quantitated by qRT-PCR (IL-10, TGFβ) and normalized to HPRT. FIG. 1D—PMΦ were pre-treated with chemerin (0.1-1 pM)±pertussis toxin (PTX; 200 ng/ml) prior to LPS/IFNγ-challenge. FIG. 1E—PMΦ were pre-treated with chemerin (1 pM) for 1 h±PTX and then stimulated with LPS/IFNγ for 4 h, 8 h or 15 h. ***, p<0.001; **, p<0.01; *, p<0.05 relative to LPS/IFNγ-treated samples. ###, p<0.001; ##, p<0.01; #, p<0.05 relative to chemerin-treated samples. […]
Total RNA was extracted using Qiagen RNeasy kits, reverse transcribed and subjected to qRT-PCR using the Sybr-Green method. Data was analysed using the 2-ΔΔCT method (Livak, K. J. & Schmittgen T. D. (2001), Methods 25:402-408).

B1: Chemerin: 140 amino acid mouse Chemerin protein of Sequence ID no: 34 (protein, listed as Mus sp.)
chain: TVGTEPELSETQRRSLQVALEEFHKHPPVQLAFQEIGVDRAEEVLFSAGTFVRLEFKLQQTNCPKKDWKKPECTIKPNGRRRKCLACIKMDPKGKILGRIVHCPILKQGPQDPQELQCIKIAQAGEDPHGYFLPGQFAFS
Which “Induction of IL-10 mRNA expression (FIG. 1C)” value does the source give for B1 here?
The value was 89%.

And the “Induction of TGFβ mRNA expression (FIG. 1C)” value?
The value was 54%.
